T1: Human CD19-his protein (human, UniProt P15391 20-291)
T1 construct: bought protein; also called human CD19 protein; recombinant human CD19-His; not shown: His tag
T1 sequence (looked up): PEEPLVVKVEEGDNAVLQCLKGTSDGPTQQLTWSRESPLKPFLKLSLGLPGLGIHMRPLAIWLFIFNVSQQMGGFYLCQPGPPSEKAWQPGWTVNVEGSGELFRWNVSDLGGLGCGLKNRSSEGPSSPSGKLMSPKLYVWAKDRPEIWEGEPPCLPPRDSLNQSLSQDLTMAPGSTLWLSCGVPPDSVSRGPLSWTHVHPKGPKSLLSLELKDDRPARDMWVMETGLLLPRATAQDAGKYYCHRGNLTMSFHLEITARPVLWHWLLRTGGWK

T2: human CD19 exon1-3-his protein (human, UniProt P15391 20-186, limits assumed)
T2 construct: made in HEK293E cells; also called membrane-distal end; not shown: His tag
T2 sequence (looked up): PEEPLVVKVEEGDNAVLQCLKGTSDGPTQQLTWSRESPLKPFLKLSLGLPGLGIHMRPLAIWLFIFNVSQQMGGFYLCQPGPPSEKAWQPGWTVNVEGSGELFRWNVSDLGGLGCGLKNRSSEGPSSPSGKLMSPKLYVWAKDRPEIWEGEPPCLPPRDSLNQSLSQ

T3: murine CD19 protein (murine, UniProt P25918 17-287, limits assumed)
T3 construct: bought protein; also called commercial murine CD19
T3 sequence (looked up): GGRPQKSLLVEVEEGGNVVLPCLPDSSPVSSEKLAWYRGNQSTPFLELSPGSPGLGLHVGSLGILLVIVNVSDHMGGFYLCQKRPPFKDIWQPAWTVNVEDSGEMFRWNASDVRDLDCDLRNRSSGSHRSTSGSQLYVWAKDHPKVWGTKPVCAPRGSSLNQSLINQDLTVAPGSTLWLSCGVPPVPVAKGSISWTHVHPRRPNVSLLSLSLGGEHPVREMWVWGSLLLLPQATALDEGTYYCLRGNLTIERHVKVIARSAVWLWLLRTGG

B1: F4.180.1 (antibody, human IgG1, V domains shown)
VH: EVQLQQSAPELVKPGASVKMSCKTSGYTFTENIIHWVKQTHGKSLEWIGGINPDNGGTSYHQKFKGRTTLTIDKSSSTAYMELRSLTSDDSAVFFCARQAPLYWYFDIWGAGTTVTVSS
VL: DIVLTQSPASLAVSLGQRATISCRASESVDSYGNSLMHWFQQKPGQPPRLLIYRASNLESGIPARFSGSGSRTDFTLTITPVEADDVATYYCQQSNEDPWTFGGGTKLEIK
notes: human-murine chimeric antibody, human IgG1
B2: F4.191.1 (antibody, human IgG1, V domains shown)
VH: QVQLQQPGAELVRPGASVKLSCKASGYTFTSYWINWVKQRPGQGLEWIGNIHPSDSYTNYNQKFKDKATLTVDKSSSTAYMQFSSPTSEDSAVYYCTREDYYYGSNYDAMDYWGQGTSVTVSS
VL: DIVMTQSHKFMSTSVGDRVNITCKASQDVGSSVAWYQQKPGQSPKLLIYWASTRHAGVPDRFTGSGSGADFTLTISNVQSEDLADYFCQQYSTYPLTFGAGTKLELK
notes: as for B1
B3: F5.2.9 (antibody, human IgG1, V domains shown)
VH: QVTLKESGPGILQPSQTLSLTCSFSGFSLSTFGLGVGWVRQPSGKGLEWLAHIWWDDDKYYNPALKSRVTVSKETSKNQVFFKIANVDTADSATYYCARLSRGLRRDVVYAMDHWGQGTSVTVSS
VL: DIQMTQTTSSLSASLGDRVTISCRASQDISNYLNWYQQKPDGSVKLLISYVSRLQSGVPSRFRGSGSGTDYSLTISNLDQEDIATYFCQQGIAFPYTFGGGTKLDIK
notes: as for B1
B4: F5.3.6 (antibody, human IgG1, V domains shown)
VH: DVQLQESGPGLVKPSQSQSLTCSVTGYSITSGYYWNWIRQFPGNKLEWMGYISYDGSNNYNPSLKNRISITRDTSKNQFFLKLNSVTTEDTVTYYCARAPLTGDRYWYFDVWGTGTTVTVSS
VL: DIVLTQSPASLAVSLGQRATISCRASQSVSTSSYSYMHWYQQKPGQTPKLLIKYASNLKSGVPARFSGSGSGTDFTLNIHPVEEEDTATYYCQHSWEIPPTFGGGTKLEIK
notes: as for B1
B5: F4.15.9 (antibody, human IgG1, V domains shown)
VH: QVQLQQSGPELVKPGASVKISCKASGYAFSSSWMNWLKQRPGQGLEWIGRIYPGDGDTNYNGKFKGKATLTADESSSTAYMQLSSLTSVDSAVYFCARGITTIITIAWFASWGQGTLVTVSA
VL: QIVLSQSPTILSASPGEKVTMTCRASSSVSYMHWYQQKPGSSPKPWIYATSNLASGVPPRFSGSGSGTSYSLTISRVGAEDAATYYCQQWSSDPWTFGGGTKLEIK
notes: as for B1

What was measured:
Human CD19-his protein [1] = molecular target: T1, Human CD19-his protein; assay: ELISA, antibody at 10 nM
Human CD19-his protein [2] = molecular target: T1, Human CD19-his protein; assay: ELISA, antibody at 0.001 nM
Human CD19-his protein [3] = molecular target: T1, Human CD19-his protein; assay: ELISA on coated human CD19-His
Description: Human CD19-his protein (purchased from ACROBiosystems, catalog number: CD9-H52H2) was diluted with PBS to a final concentration of 4 μg/mL, and then added to a 96-well ELISA plate at 100 μl/well. The plate was sealed with a plastic film and incubated overnight at 4° C., the plate was washed 2 times with PBS the next day, and then a blocking solution [PBS+2% (w/w) BSA] was added for blocking at room temperature for 2 h. The blocking solution was poured off, and 100 nM gradiently diluted CD19 chimeric antibody or control antibody was added at 50 μl/well. After incubation at 37° C. for 2 h, the plate was washed 3 times with PBS. […] TMB substrate was added at 50 μl/well, and incubated at room temperature for 10 min, and then a stop solution (1.0 N HCl) was added at 50 μl/well. The OD450 nm values were read by an ELISA microplate reader (Multimode Plate Reader, EnSight, purchased from Perkin Elmer).

Human CD19-his protein [4] = molecular target: T1, Human CD19-his protein; assay: ELISA, antibody at 0.10 nM
Human CD19-his protein [5] = molecular target: T1, Human CD19-his protein; assay: ELISA, antibody at 0.01 nM
Human CD19-his protein [6] = molecular target: T1, Human CD19-his protein; assay: ELISA, antibody at 1.00 nM
Human CD19-his protein [7] = molecular target: T1, Human CD19-his protein; assay: ELISA, antibody at 100 nM
Human CD19-his protein [8] = molecular target: T1, Human CD19-his protein; assay: ELISA, antibody at 0.0001 nM
[9] = molecular target: T2, human CD19 exon1-3-his protein; assay: ELISA, coated at 2 ug/mL
murine CD19 protein = molecular target: T3, murine CD19 protein; assay: ELISA, coated murine CD19
Procedure, shortened: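 Plates coated overnight at 4° C with recombinant murine or monkey CD19 and blocked with 2% BSA. Chimeric antibodies, serially diluted from 100 nM, bound for 2 h at 37° C. TMB development for 10 min with OD450 read-out.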

| Binder | OD450 (Human CD19-his protein [1]) | OD450 (Human CD19-his protein [2]) | EC50 (read off the curve) (Human CD19-his protein [3]) | OD450 (Human CD19-his protein [4]) | OD450 (Human CD19-his protein [5]) | OD450 (Human CD19-his protein [6]) | OD450 (Human CD19-his protein [7]) | OD450 (Human CD19-his protein [8]) | binding result [9] | binding result (murine CD19 protein) |
| --- | --- | --- | --- | --- | --- | --- | --- | --- | --- | --- |
| B1 | 1.92 | 0.06 | ~0.2 nM | 0.76 | 0.12 | 1.63 | 2.02 | 0.05 | no binding | no binding |
| B2 | 1.43 | 0.06 | ~0.2 nM | 0.57 | 0.13 | 1.42 | 1.69 | 0.05 | no binding | no binding |
| B3 | 1.76 | 0.11 | ~0.06 nM | 1.05 | 0.29 | 1.55 | 1.56 | 0.08 | no binding | no binding |
| B4 | 1.56 | 0.06 | ~0.4 nM | 0.33 | 0.09 | 1.11 | 1.49 | 0.05 | no binding | no binding |
| B5 | 1.27 | 0.08 | ~0.03 nM | 1.06 | 0.24 | 1.12 | 1.35 | 0.06 | no binding | no binding |
